From patent US20220133889A1

Experiments:
[1] = target: huTIM-3/his (human) (UniProt Q8TDQ0); assay: Biacore sequential injection; value belongs to the 2nd antibody huIgG1; competitor (1st antibody) ABTIM3-hum21
[2] = target: huTIM-3/his (human) (UniProt Q8TDQ0); assay: Biacore, hTIM-3/his captured by anti-His antibody on a CM5 chip; first injection
[3] = target: huTIM-3/his (human) (UniProt Q8TDQ0); assay: Biacore sequential injection; value belongs to the 2nd antibody huIgG1; competitor (1st antibody) ABTIM3-hum03
[4] = target: huTIM-3/his (human) (UniProt Q8TDQ0); assay: Biacore sequential injection; value belongs to the 2nd antibody huIgG1; competitor (1st antibody) ABTIM3-hum11
[5] = target: huTIM-3/his (human) (UniProt Q8TDQ0); assay: Biacore sequential injection; value belongs to the 2nd antibody huIgG1; competitor (1st antibody) huIgG1

**Q.** Which change in RU (2nd antibody injection) [1] does the source give for huIgG1 (antibody) here?
**A.** Its change in RU (2nd antibody injection) is 4.5 RU.

**Q.** And the change in RU (1st antibody injection) [2]?
**A.** The change in RU (1st antibody injection) was 0.27 RU.

**Q.** And the change in RU (2nd antibody injection) [3]?
**A.** The change in RU (2nd antibody injection) was 4.5 RU.

**Q.** And the change in RU (2nd antibody injection) [4]?
**A.** The change in RU (2nd antibody injection) was 3.8 RU.

**Q.** What about the change in RU (2nd antibody injection) [5] of the same substance?
**A.** Its change in RU (2nd antibody injection) is 3.6 RU.
